Values quoted from earlier work, collected in publication PMC4209448 (Scientific Reports, 2014).

Details: C57BL/6 mice

Aβ(1–40): amyloid-β(1–40) peptide whose CSF-to-blood efflux half-time is quoted from the literature
Half-time of efflux from the CSF to blood: 34.63 ± 3.6 min
